T1: human FcγRIIb (CD32b) extracellular domain (human, UniProt P31994 43-217)
T1 construct: extracellular domain
T1 sequence (looked up): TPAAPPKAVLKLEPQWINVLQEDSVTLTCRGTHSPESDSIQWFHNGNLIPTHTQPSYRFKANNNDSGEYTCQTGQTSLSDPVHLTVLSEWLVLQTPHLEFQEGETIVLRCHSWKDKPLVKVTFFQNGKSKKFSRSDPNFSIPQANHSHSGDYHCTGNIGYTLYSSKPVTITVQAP

B1: Antibody D (antibody, human IgG1, kappa, L234A L235A, V domains shown)
VH: EVQLLESGGGLVQPGGSLRLSCAASGFTFSSFAMSWVRQAPGKGLEWVSAISGSGGSTYSADSVRGRFTISRDNSKNTLYLQMNSLRAEDTAVYYCAKDQGDWDFLFDYWGQGTLVTVSS
VL: DIQMTQSPSFLSASVGDRVTITCRASQGISSSLAWYQQKPGKAPKLLIYTASTLQSGVPSRFSGSGSGTEFTLTISSLQPEDFATYYCQQLNYYPFTFGQGTKVEIKR
notes: Same HC as Antibody A
B2: Antibody A-IgG1 (antibody)
heavy: not shown
light: DIQMTQSPSFLSASVGDRVTITCRASQGISSSLAWYQQKPGKAPKLLIYTASTLQSGVPSRFSGSGSGTEFTLTISSLQPEDFATYYCQQLIYYPFTFGQGTKVEIKRTVAAPSVFIFPPSDEQLKSGTASVVCLLNNFYPREAKVQWKVDNALQSGNSQESVTEQDSKDSTYSLSSTLTLSKADYEKHKVYACEVTHQGLSSPVTKSFNRGEC
notes: there they lie 3 residues further on); also called Antibody A-IgG1 control; Antibody-A with non-modified IgG1
B3: Antibody A IgG4PAA-YTE (antibody)
heavy: EVQLLESGGGLVQPGGSLRLSCAASGFTFSSFAMSWVRQAPGKGLEWVSAISGSGGSTYSADSVRGRFTISRDNSKNTLYLQMNSLRAEDTAVYYCAKDQGDWDFLFDYWGQGTLVTVSSASTKGPSVFPLAPCSRSTSESTAALGCLVKDYFPEPVTVSWNSGALTSGVHTFPAVLQSSGLYSLSSVVTVPSSSLGTKTYTCNVDHKPSNTKVDKRVESKYGPPCPPCPAPEAAGGPSVFLFPPKPKDTLYITREPEVTCVVVDVSQEDPEVQFNWYVDGVEVHNAKTKPREEQFNSTYRVVSVLTVLHQDWLNGKEYKCKVSNKGLPSSIEKTISKAKGQPREPQVYTLPPSQEEMTKNQVSLTCLVKGFYPSDIAVEWESNGQPENNYKTTPPVLDSDGSFFLYSRLTVDKSRWQEGNVFSCSVMHEALHNHYTQKSLSLSLGK
light: B2 light
notes: VH and VL matched to Antibody A; Positions are Fc numbering as printed (EU index implied)
B4: Antibody A IgG1-YTE (antibody)
heavy: EVQLLESGGGLVQPGGSLRLSCAASGFTFSSFAMSWVRQAPGKGLEWVSAISGSGGSTYSADSVRGRFTISRDNSKNTLYLQMNSLRAEDTAVYYCAKDQGDWDFLFDYWGQGTLVTVSSASTKGPSVFPLAPSSKSTSGGTAALGCLVKDYFPEPVTVSWNSGALTSGVHTFPAVLQSSGLYSLSSVVTVPSSSLGTQTYICNVNHKPSNTKVDKRVEPKSCDKTHTCPPCPAPELLGGPSVFLFPPKPKDTLYITREPEVTCVVVDVSHEDPEVKFNWYVDGVEVHNAKTKPREEQYNSTYRVVSVLTVLHQDWLNGKEYKCKVSNKALPAPIEKTISKAKGQPREPQVYTLPPSREEMTKNQVSLTCLVKGFYPSDIAVEWESNGQPENNYKTTPPVLDSDGSFFLYSKLTVDKSRWQQGNVFSCSVMHEALHNHYTQKSLSLSPGK
light: B2 light

What was measured:
[1] = target: T2, Recombinant LEPR extracellular domain fused to hIgG1-Fc (human LEPR ECD-TEV-Fc) (human); test: ELISA, plate coated with human LEPR ECD (SEQ ID NO:30) at 2 ug/mL, antibody titrated 1:3 from 50 ug/mL, goat anti-human kappa AP detection, OD560
T2 construct: The entry holds ECD, TEV site, human IgG1 Fc and a His tag in one chain; also called LEPR-Fc; hLEPR-TEV-hIgG1Fc
Protocol: The plate was then washed. Antibodies were titrated, starting at 50 μg/mL in Casein with 1:3 serial dilutions across the plate. Plate was incubated at RT for 1 hr. The plate is then washed.
The mixture was incubated at RT for 1 hr. The plate is then washed.
The curves indicate relative binding of IgG antibodies to human LEPR. The LEPR is bound to an ELISA plate and the antibodies are titrated in 3-fold increments starting at 50 μg/mL.

[2] = target: T3, human FcγRIIIA_158F (CD16a) extracellular domain (human, UniProt P08637 17-208); test: SPR at 25 C (Biacore T200), antibody captured on Protein A chip, FcγR ECD as analyte, steady state; average of 3, SD 0.03
T3 construct: extracellular domain
Protocol: (§1) Briefly, the surfaces of all 4 flow cells were activated by injecting a 1:1 mixture of EDC/NHS for 7 minutes at 10 μL/minute. […] Un-reacted sites were blocked with a 7-minute injection of ethanolamine at 10 μL/minute. Injections of 2×10 μL of glycine pH 1.5 were used to remove any noncovalently associated protein.
(§2) For FcγRIIa, FcγRIIb, and FcγRIIIa binding, antibodies were diluted to 5 μg/mL in running buffer, and approximately 500 RU is captured in flow cells 2 through 4 (RUcaptured). FC1 is the reference flow cell. […] Duplicate injections of each concentration were injected over all FCs at 40 L/minute for 60 seconds followed by a 120 second dissociation phase. Regeneration was performed by injecting 15μL of 10 mM glycine pH 1.5 at 30 μL/minute over all FCs.
(§3) Reference-subtracted data was collected as FC2-FC1, FC3-FC1, and FC4-FC1. The measurements were obtained at 25° C. The affinity (KD) was calculated using the steady state equilibrium analysis with the Scrubber 2 Biacore® Evaluation Software.

[3] = target: T4, Human C1q (MS Biomedical) (human, UniProt P02745 23-245; P02746 28-253; P02747 29-245); test: C1q ELISA, plate coated with the antibody at 0.19-10 ug/mL, human C1q added at 10 ug/mL, sheep anti-human C1q-HRP detection, OD450
T4 construct: the three subunits are from general knowledge; also called complement component C1q; Clq
Protocol: Testing was performed in duplicate wells. The plate was sealed and incubated overnight at 4° C. The coating reagent was removed from each well and 200 μL/well of casein blocking reagent (Thermo) was added. The plate was sealed and incubated for 2 hours at room temperature (RT). Each well was washed 3 times with wash buffer (1xTBE with 0.05% Tween 20). One hundred microliters per well of Human Clq (MS Biomedical) at 10 μg/mL diluted in casein blocking reagent was added and incubated for 3 hours at RT. The plate was then washed three times with wash buffer before 100 L/well of a 1:800 dilution of Sheep anti-human C1q-HRP (Abcam #ab46191) in casein blocker was added and incubated for 1 hour at RT. The plate was washed 6 times with wash buffer, and 100 μL/well of TMB Substrate (Pierce) was added to each well and incubated for 7 minutes. One hundred microliters of 1 N HCl was added to each well to stop the reaction.

[4] = target: T5, human FcγRI (CD64) extracellular domain (human, UniProt P12314 16-292); test: SPR at 25 C (Biacore T200), antibody captured on Protein A chip, FcγR ECD as analyte; average of 3, SD 0.4
T5 construct: extracellular domain; also called FcγRI ECD
Protocol: as §1
For FcγRI binding, antibodies were diluted to 2.5 g/mL in running buffer (1x HBS-EP+, Teknova P/N H8022), and approximately 150 RU of each antibody was captured in flow cells 2 through 4 (RUcaptured). FC1 was the reference flow cell, therefore, no antibody was captured in FC1. […] Duplicate injections of each concentration were injected over all FCs at 40 μL/minute for 120 seconds followed by a 1200 second dissociation phase. Regeneration was performed by injecting 15 μL of 10 mM glycine pH 1.5 at 30 μL/minute over all FCs. Reference-subtracted data was collected as FC2-FC1, FC3-FC1, and FC4-FC1. The measurements were obtained at 25° C. The affinity (KD) was calculated using either steady state equilibrium analysis with the Scrubber 2 Biacore® Evaluation Software or a “1:1 (Langmuir) binding” model in BIA Evaluation.

[5] = target: T6, neonatal Fc receptor (FcRn) on FcRn Affinity Column Gen2 (Roche, Cat #09430857001) (UniProt P55899 24-297; P61769 21-119, limits assumed); test: FcRn-HPLC (Roche FcRn Affinity Column Gen2), peak width at 50% peak height
Protocol: (§4) Stock antibody solutions were diluted to 1 mg/mL into 20 mM MES, 140 mM NaCl, pH5.5. […] 20 μμL antibody injections were made followed by 10 minute column wash with 20 mM MES, 140 mM NaCl, pH5.5. Antibodies were then eluted by pH gradient elution into 20 mM Tris, 140 mM NaCl, pH8.8 over 90 minutes. Chromatograms were blank-subtracted to remove baseline drift.

[6] = target: T1, human FcγRIIb (CD32b) extracellular …; test: SPR at 25 C (Biacore T200), antibody captured on Protein A chip, FcγR ECD as analyte, steady state; average of 3, SD 0.17
Protocol: as §1, §2, §3

[7] = target: T6, neonatal Fc receptor (FcRn) on FcRn …; test: FcRn-HPLC (Roche FcRn Affinity Column Gen2), pH gradient 5.5 to 8.8 over 90 minutes
Protocol: as §4

T2 sequence (chain, as listed by the source limits assumed): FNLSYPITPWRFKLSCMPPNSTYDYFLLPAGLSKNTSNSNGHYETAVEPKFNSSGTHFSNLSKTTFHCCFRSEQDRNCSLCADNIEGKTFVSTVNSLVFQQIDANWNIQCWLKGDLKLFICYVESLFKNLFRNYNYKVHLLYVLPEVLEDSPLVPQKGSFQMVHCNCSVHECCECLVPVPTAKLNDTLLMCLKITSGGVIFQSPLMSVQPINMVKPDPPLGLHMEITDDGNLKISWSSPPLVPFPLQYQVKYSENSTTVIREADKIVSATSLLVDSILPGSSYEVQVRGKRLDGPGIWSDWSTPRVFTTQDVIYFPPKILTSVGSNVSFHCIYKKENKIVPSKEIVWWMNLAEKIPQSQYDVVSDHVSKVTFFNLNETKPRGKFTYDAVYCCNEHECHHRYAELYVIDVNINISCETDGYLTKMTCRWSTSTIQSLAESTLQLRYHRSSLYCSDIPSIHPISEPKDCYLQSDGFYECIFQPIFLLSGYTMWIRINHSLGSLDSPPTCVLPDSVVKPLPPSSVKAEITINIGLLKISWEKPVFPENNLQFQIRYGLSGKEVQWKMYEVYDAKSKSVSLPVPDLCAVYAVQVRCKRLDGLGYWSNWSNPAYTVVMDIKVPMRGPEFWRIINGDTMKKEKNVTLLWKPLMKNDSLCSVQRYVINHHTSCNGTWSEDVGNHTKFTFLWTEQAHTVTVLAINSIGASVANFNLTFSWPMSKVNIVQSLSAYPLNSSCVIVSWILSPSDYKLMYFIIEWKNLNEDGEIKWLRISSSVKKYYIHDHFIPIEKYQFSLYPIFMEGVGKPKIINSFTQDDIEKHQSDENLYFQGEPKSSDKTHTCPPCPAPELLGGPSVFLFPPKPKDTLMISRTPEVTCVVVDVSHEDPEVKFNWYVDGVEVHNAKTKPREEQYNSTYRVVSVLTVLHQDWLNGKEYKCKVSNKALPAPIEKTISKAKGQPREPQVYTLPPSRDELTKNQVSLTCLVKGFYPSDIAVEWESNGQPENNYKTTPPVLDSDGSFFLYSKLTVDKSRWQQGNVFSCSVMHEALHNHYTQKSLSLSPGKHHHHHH
T4 sequence (P02745 23-245 limits assumed, chain 1 of 3): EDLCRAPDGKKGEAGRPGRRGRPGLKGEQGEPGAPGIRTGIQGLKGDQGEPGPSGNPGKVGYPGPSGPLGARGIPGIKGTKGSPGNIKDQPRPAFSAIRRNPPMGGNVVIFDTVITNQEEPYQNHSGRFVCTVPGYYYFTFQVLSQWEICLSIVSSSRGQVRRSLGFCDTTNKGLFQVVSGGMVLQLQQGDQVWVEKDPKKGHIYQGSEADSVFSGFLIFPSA
T4 sequence (P02746 28-253 limits assumed, chain 2 of 3): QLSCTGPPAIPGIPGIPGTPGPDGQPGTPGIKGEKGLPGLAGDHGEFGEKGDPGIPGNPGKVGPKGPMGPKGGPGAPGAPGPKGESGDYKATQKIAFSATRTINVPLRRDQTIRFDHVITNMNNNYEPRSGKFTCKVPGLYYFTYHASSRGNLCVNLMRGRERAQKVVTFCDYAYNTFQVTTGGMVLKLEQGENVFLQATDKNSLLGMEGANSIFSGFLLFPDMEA
T4 sequence (P02747 29-245 limits assumed, chain 3 of 3): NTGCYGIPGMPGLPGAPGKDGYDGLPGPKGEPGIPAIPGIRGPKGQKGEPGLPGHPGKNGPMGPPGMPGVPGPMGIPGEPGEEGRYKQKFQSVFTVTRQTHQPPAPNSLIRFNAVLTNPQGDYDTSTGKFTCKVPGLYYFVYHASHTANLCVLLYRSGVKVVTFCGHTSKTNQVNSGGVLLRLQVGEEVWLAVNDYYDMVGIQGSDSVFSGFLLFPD
T3 sequence (P08637 17-208): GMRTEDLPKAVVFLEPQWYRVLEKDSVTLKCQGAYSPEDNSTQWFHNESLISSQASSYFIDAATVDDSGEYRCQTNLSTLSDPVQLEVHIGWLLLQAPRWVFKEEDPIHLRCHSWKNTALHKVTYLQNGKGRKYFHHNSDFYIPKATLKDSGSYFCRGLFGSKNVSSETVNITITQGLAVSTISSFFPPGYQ
T5 sequence (P12314 16-292): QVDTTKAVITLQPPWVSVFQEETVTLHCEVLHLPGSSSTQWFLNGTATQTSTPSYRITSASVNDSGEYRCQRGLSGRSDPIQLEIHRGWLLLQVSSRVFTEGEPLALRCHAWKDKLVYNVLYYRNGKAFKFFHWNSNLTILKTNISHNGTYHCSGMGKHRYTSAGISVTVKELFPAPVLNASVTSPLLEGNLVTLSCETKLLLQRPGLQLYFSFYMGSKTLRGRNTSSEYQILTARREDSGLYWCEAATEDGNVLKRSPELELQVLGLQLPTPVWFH

EC50 (read off the curve) [1] [mg/L]	Kd [2] [nM]	EC50 (read off the curve) [3] [mg/L]	Kd [4] [nM]	Peak Width [5] [min]	Kd [6] [nM]	Retention Time [7] [min]	Binder
~0.07							B1
	1560	~1	0.0676	1.7	3610	69.5	B2
				2.7		79.6	B3
				2.8		80.3	B4
